Source: patent publication US12612465B2, “Formulations comprising PCSK9 specific monoclonal antibodies” (Amgen Inc., priority 2012, dated 2026)

Tests used:
[1] = target: T1, PCSK9 (Homo sapiens, UniProt Q8NBP7); experiment: 12 week study in hypercholesterolemic patients unable to tolerate a statin (Example 23); type: in vivo; conditions: statin-intolerant, preliminary
T1 construct: endogenous in cells; host or cells: human subjects, in vivo
Description: It is planned to enroll 150 subjects. […] Randomization will be stratified by screening LDL-C level (<130 mg/dL [3.4 mmol/L] vs ≥130 mg/dL) and statin use at baseline (yes vs no). Randomization should occur within 5-10 days of the screening LDL-C evaluation used to determine eligibility. Monoclonal antibody, 21B12, and placebo will be blinded. Ezetimibe is not blinded. Study visits are at weeks 2, 4, 8, and 12. […] The end-of-study visit and the last evaluation of lipids is at week 12.
Males and females, ≥18 to ≤75 years of age, are eligible for this study. Subject must have tried at least 1 statin and have been unable to tolerate any dose or an increase in statin dose above the following total weekly maximum doses due to myalgia or myopathy: atorvastatin ≤70 mg, simvastatin ≤140 mg, pravastatin ≤140 mg, rosuvastatin ≤35 mg, lovastatin ≤140 mg, fluvastatin ≤280 mg. For unlisted statins, the maximal total weekly dose should not exceed 7 times the smallest available tablet size. Symptoms must have resolved when statin was discontinued or the dose reduced. If receiving statin (not exceeding the maximal dose defined above), bile-acid sequestering resin, and/or stanol therapy, the dose(s) must be stable for at least 4 weeks prior to LDL-C screening. If the subject is on ezetimibe at start of screening, ezetimibe must be discontinued for ≥4 weeks before LDL-C screening. Depending on their risk category (based on NCEP ATP III treatment goals) subjects must meet the following fasting LDL-C (by central laboratory) criteria at screening: ≥100 mg/dL (2.6 mmol/L) for subjects with diagnosed coronary heart disease (CHD) or CHD risk equivalent; ≥130 mg/dL (3.4 mmol/L) for subjects without diagnosed CHD or risk equivalent and 2 or more risk factors; ≥160 mg/dL (4.1 mmol/L) for subjects without diagnosed CHD or risk equivalent and with 1 or no risk factors. Fasting triglycerides must be ≤400 mg/dL (4.5 mmol/L) as determined by the central laboratory analysis at screening.

[2] = target: T1, PCSK9; experiment: 12 week dose-ranging study in combination with statins (Example 25); type: in vivo; conditions: on statin, preliminary
Description: Randomization will be stratified by screening LDL-C level (<130 mg/dL [3.4 mmol/L] vs ≥130 mg/dL) and ezetimibe use at baseline (yes vs no). Randomization should occur within 5-10 days of the screening LDL-C evaluation used to determine eligibility. Study visits are every 2 weeks, irrespective whether the subject receives Q2W SC or Q4W treatment. […] The end-of-study visit and the last estimation of lipids is at week 12 for subjects on Q4W IP schedule and week 14 for subjects on Q2W IP schedule.
Males and females, ≥18 to ≤80 years of age, are eligible for this study. For enrollment,
subjects must be on a statin, with or without ezetimibe, with stable dose(s) for at least 4 weeks before LDL-C screening and not requiring uptitration. Fasting LDL-C at screening must be ≥85 mg/dL (2.2 mmol/L). Enrollment of subjects with screening fasting LDL-C between ≥85 mg/dL (2.2 mmol/L) and <100 mg/dL (2.6 mmol/L) will be limited to no more than approximately 20% of total planned enrollment. Fasting triglycerides must be ≤400 mg/dL (4.5 mmol/L) as determined by the central laboratory analysis at screening.

[3] = 280 mg Q4W SC, end of dosing interval
[4] = 350 mg Q4W SC, end of dosing interval
[5] = 70 mg Q2W SC, end of dosing interval
[6] = 105 mg Q2W SC, end of dosing interval
[7] = 280 mg (Q2W as printed) SC, end of dosing interval
[8] = 350 mg (Q2W as printed) SC, end of dosing interval

T1 sequence (Q8NBP7 153-692): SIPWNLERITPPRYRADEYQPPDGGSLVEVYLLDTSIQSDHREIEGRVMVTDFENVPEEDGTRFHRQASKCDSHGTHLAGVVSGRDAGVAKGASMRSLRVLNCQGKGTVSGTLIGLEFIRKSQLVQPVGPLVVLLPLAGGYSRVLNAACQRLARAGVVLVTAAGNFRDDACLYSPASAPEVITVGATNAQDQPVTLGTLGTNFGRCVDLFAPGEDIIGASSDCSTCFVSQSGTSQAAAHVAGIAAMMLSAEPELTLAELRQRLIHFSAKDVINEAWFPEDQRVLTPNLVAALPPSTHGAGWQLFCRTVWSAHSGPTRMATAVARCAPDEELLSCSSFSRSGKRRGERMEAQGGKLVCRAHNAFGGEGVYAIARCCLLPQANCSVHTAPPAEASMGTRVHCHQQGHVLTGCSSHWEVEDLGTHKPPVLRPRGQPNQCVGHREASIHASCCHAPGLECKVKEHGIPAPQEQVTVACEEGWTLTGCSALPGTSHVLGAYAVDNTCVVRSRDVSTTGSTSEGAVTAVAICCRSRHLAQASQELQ

B1: 21B12: human anti-PCSK9 monoclonal antibody, light/heavy variable region SEQ ID NO 23/49 (antibody, listed as Homo sapiens, V domains shown)
VH: QVQLVQSGAEVKKPGASVKVSCKASGYTLTSYGISWVRQAPGQGLEWMGWVSFYNGNTNYAQKLQGRGTMTTDPSTSTAYMELRSLRSDDTAVYYCARGYGMDVWGQGTTVTVSS
VL: QSALTQPASVSGSPGQSITISCTGTSSDVGGYNSVSWYQQHPGKAPKLMIYEVSNRPSGVSNRFSGSKSGNTASLTISGLQAEDEADYYCNSYTSTSMVFGGGTKLTVL
B1 was tested, and the “LS mean percent increase from baseline in HDL-C” value (“LS mean percent increase” below) [1, 3] was 8.62%, the “LS mean percent reduction from baseline in LDL-C” value [1, 3] was 38.79% and the “LS mean percent reduction from baseline in Lp(a)” value [1, 3] was 27.38%. For the same molecule, the “LS mean percent reduction from baseline in VLDL-C” value [1, 3] was 31.02%, the “LS mean percent reduction from baseline in non-HDL-C” value [1, 3] was 39.92% and the “LS mean percent reduction from baseline in total cholesterol” value [1, 3] was 31.03%. The “LS mean percent reduction from baseline in triglycerides” value [1, 3] was 15.35%, the “LS mean percent increase” value [1, 4] was 4.62% and the “LS mean percent reduction from baseline in LDL-C” value [1, 4] was 40.01%. The “LS mean percent reduction from baseline in Lp(a)” value [1, 4] was 16.04%, the “LS mean percent reduction from baseline in VLDL-C” value [1, 4] was 38.14% and the “LS mean percent reduction from baseline in non-HDL-C” value [1, 4] was 42.86%. The “LS mean percent reduction from baseline in total cholesterol” value [1, 4] was 34.46%, the “LS mean percent reduction from baseline in triglycerides” value [1, 4] was 19.22% and the “LS mean percent increase” value ([1]; 420 mg Q4W SC) was 7.55%. For the same molecule, the “LS mean percent reduction from baseline in LDL-C” value ([1]; 420 mg Q4W SC) was 50.63%, the “LS mean percent reduction from baseline in Lp(a)” value ([1]; 420 mg Q4W SC) was 23.84% and the “LS mean percent reduction from baseline in VLDL-C” value ([1]; 420 mg Q4W SC) was 37.27%. For the same molecule, the “LS mean percent reduction from baseline in non-HDL-C” value ([1]; 420 mg Q4W SC) was 53.49%, the “LS mean percent reduction from baseline in total cholesterol” value ([1]; 420 mg Q4W SC) was 42.23% and the “LS mean percent reduction from baseline in triglycerides” value ([1]; 420 mg Q4W SC) was 19.55%. The “LS mean percent increase” value [2, 5] was 21.17%, the “LS mean percent reduction from baseline in LDL-C” value [2, 5] was 39.22% and the “LS mean percent reduction from baseline in Lp(a)” value [2, 5] was 21.17%. The “LS mean percent reduction from baseline in VLDL-C” value [2, 5] was 14.84%, the “LS mean percent reduction from baseline in non-HDL-C” value [2, 5] was 36.20% and the “LS mean percent reduction from baseline in total cholesterol” value [2, 5] was 26.33%. The “LS mean percent reduction from baseline in triglycerides” value [2, 5] was 7.20%, the “LS mean percent increase” value [2, 6] was 6.80% and the “LS mean percent reduction from baseline in LDL-C” value [2, 6] was 56.38%. For the same molecule, the “LS mean percent reduction from baseline in Lp(a)” value [2, 6] was 33.41%, the “LS mean percent reduction from baseline in VLDL-C” value [2, 6] was 12.75% and the “LS mean percent reduction from baseline in non-HDL-C” value [2, 6] was 51.20%. The “LS mean percent reduction from baseline in total cholesterol” value [2, 6] was 36.91%, the “LS mean percent reduction from baseline in triglycerides” value [2, 6] was 5.65% and the “LS mean percent increase” value ([2]; 140 mg Q2W SC) was 8.43%. For the same molecule, the “LS mean percent reduction from baseline in LDL-C” value ([2]; 140 mg Q2W SC) was 68.76%, the “LS mean percent reduction from baseline in Lp(a)” value ([2]; 140 mg Q2W SC) was 33.87% and the “LS mean percent reduction from baseline in VLDL-C” value ([2]; 140 mg Q2W SC) was 45.14%. The “LS mean percent reduction from baseline in non-HDL-C” value ([2]; 140 mg Q2W SC) was 64.61%, the “LS mean percent reduction from baseline in total cholesterol” value ([2]; 140 mg Q2W SC) was 46.17% and the “LS mean percent reduction from baseline in triglycerides” value ([2]; 140 mg Q2W SC) was 17.60%. The “LS mean percent increase” value [2, 7] was 2.17%, the “LS mean percent reduction from baseline in Lp(a)” value [2, 7] was 22.54% and the “LS mean percent reduction from baseline in VLDL-C” value [2, 7] was 18.12%. For the same molecule, the “LS mean percent reduction from baseline in non-HDL-C” value [2, 7] was 38.89%, the “LS mean percent reduction from baseline in total cholesterol” value [2, 7] was 28.08% and the “LS mean percent reduction from baseline in triglycerides” value [2, 7] was 6.75%. The “LS mean percent reduction from baseline in LDL-C” value ([2]; 280 mg (Q4W) SC, end of dosing interval) was 42.62%, the “LS mean percent increase” value [2, 8] was 6.92% and the “LS mean percent reduction from baseline in Lp(a)” value [2, 8] was 29.43%. For the same molecule, the “LS mean percent reduction from baseline in VLDL-C” value [2, 8] was 20.89%, the “LS mean percent reduction from baseline in non-HDL-C” value [2, 8] was 50.83% and the “LS mean percent reduction from baseline in total cholesterol” value [2, 8] was 36.04%. The “LS mean percent reduction from baseline in triglycerides” value [2, 8] was 9.17%, the “LS mean percent reduction from baseline in LDL-C” value ([2]; 350 mg SC, end of dosing interval) was 56.84% and the “LS mean percent increase” value ([2]; 420 mg (Q2W as printed) SC) was 7.42%. For the same molecule, the “LS mean percent reduction from baseline in Lp(a)” value ([2]; 420 mg (Q2W as printed) SC) was 23.29%, the “LS mean percent reduction from baseline in VLDL-C” value ([2]; 420 mg (Q2W as printed) SC) was 28.66% and the “LS mean percent reduction from baseline in non-HDL-C” value ([2]; 420 mg (Q2W as printed) SC) was 48.54%. The “LS mean percent reduction from baseline in total cholesterol” value ([2]; 420 mg (Q2W as printed) SC) was 42.76%, the “LS mean percent reduction from baseline in triglycerides” value ([2]; 420 mg (Q2W as printed) SC) was 11.13% and the “LS mean percent reduction from baseline in LDL-C” value ([2]; 420 mg SC) was 52.19%.
